# B1: GST-fused Slug (natural protein, human, UniProt O43623 1-268, looked up)
# chain: MPRSFLVKKHFNASKKPNYSELDTHTVIISPYLYESYSMPVIPQPEILSSGAYSPITVWTTAAPFHAQLPNGLSPLSGYSSSLGRVSPPPPSDTSSKDHSGSESPISDEEERLQSKLSDPHAIEAEKFQCNLCNKTYSTFSGLAKHKQLHCDAQSRKSFSCKYCDKEYVSLGALKMHIRTHTLPCVCKICGKAFSRPWLLQGHIRTHTGEKPFSCPHCNRAFADRSNLRAHLQTHSDVKKYQCKNCSKTFSRMSLLHKHEESGCCVAH
# notes: Slug (SNAI2), cDNA in the bacterial expression vector pGEX-KG; also called GST-Slug
# B2: Flag-Slug (natural protein)
# chain: B1 chain
# notes: Slug (SNAI2), wild-type cDNA in lentiviral vector CD532A; 268 aa by the printed limits of the fragments; also called Flag-tagged Slug-FL; Flag-tagged Slug; source: HEK293T, expressed, in lysate; purified from HEK293T cells (for the GST pull-down)
# How the values were obtained:
# [1] = target: T1, Flag-PRMT5 (human, UniProt O14744 1-637); assay: pull-down; GST fusion proteins on glutathione-Sepharose 4B beads mixed with Flag-tagged proteins purified from HEK293T cells, 2 h at 4 °C; washed with 50 mM Tris-HCl pH 8.0, 0.2% NP-40, 150 mM NaCl, 2 mM EDTA; immunoblot; conditions: both partners purified
# T1 construct: Protein arginine methyltransferase 5 (PRMT5), wild-type cDNA in lentiviral vector CD532A; 637 aa by the printed domain limits; also called Flag-tagged full-length (FL) PRMT5; PRMT5-FL; source: HEK293T, co-expressed, in lysate; purified from HEK293T cells (for the GST pull-down)
# [2] = target: GST-fused LSD1 (human, UniProt O60341-2 1-876); assay: as above; conditions: both partners purified
# T1 sequence (O14744 whole entry, the tested form may be a part): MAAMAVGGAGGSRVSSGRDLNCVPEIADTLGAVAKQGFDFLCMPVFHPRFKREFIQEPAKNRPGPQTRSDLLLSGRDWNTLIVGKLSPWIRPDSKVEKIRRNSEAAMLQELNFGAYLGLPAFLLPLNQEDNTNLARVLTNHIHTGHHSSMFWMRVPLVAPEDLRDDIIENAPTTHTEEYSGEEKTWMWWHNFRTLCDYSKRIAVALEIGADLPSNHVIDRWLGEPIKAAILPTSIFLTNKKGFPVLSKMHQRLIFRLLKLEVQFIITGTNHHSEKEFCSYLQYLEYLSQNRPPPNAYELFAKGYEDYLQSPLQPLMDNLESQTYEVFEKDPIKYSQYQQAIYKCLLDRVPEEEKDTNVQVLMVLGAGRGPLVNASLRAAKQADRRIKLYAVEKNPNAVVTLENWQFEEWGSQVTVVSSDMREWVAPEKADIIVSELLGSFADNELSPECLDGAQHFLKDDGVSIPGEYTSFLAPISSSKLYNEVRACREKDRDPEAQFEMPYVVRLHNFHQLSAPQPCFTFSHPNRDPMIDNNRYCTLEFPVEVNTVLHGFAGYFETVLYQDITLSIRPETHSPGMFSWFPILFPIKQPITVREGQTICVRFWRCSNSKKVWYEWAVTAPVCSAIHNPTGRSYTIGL
Binder,binding result [1],binding result [2]
B1,binds,
B2,,binds
